Source: patent publication US20110045003A1 (SYNOVEX, published 2011)

T1: BSA coupled 37-mer Cad-11 peptide encompassing the Cad-11 immunogen (UniProt P55287 54-90, limits assumed, linked to BSA)
T1 construct: domain: 37-mer peptide encompassing the Cad-11 immunogen; also called Cad-11 antigen; Cad-11 peptide immunogen
T1 peptide (looked up): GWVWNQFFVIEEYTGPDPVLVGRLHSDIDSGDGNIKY

T2: recombinant his-tagged human Cad-11 (R&D Systems) (human, UniProt P55287 54-617)
T2 construct: also called rhCad-11; recombinant human Cad-11; not shown: his tag
T2 sequence: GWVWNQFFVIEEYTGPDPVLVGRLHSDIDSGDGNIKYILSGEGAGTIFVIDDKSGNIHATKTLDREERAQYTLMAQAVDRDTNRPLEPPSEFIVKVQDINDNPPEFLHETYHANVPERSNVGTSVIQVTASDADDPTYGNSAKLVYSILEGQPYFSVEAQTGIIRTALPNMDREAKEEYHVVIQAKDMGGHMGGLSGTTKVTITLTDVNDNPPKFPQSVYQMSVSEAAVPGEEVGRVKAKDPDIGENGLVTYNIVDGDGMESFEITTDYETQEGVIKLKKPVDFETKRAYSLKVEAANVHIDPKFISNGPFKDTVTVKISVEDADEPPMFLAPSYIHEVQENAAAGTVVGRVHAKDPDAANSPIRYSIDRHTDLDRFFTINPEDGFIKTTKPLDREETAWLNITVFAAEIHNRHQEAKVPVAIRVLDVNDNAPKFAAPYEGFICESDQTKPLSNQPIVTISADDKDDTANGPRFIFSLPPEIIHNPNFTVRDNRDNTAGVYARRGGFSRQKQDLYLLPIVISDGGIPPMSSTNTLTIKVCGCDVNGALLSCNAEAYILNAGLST

T3: recombinant Cad-11 EC1 human IgG1 fusion protein (R&D Systems Cat. No. 1790-CA-050) (human, UniProt P55287 54-617, limits assumed)
T3 construct: Bought protein; the catalogue product may hold more of the extracellular region; also called recombinant human Cad-11 EC1; recombinant human Cad-11 fusion protein; not shown: human IgG1 part of the bought fusion protein
T3 sequence: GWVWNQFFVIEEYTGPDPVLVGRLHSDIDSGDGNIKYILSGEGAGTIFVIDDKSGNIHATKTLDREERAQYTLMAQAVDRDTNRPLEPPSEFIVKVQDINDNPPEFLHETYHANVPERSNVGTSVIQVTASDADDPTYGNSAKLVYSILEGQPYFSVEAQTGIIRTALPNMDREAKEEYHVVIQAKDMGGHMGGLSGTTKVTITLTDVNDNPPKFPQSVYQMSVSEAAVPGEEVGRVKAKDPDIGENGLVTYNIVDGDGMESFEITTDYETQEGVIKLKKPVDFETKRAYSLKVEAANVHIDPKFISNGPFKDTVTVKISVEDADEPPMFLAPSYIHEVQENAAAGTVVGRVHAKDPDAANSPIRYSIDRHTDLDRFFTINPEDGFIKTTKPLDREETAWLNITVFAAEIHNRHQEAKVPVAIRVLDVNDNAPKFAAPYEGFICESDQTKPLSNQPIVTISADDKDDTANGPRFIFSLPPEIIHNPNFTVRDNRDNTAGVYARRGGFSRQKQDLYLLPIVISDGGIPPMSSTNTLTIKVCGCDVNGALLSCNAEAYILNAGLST


Experiments:
[1] = target: T1, BSA coupled 37-mer Cad-11 peptide …; assay: ELISA on BSA coupled 37-mer cadherin peptides, coat 500 ng/ml
Description: A dilution series from 5 μg/ml to 8 ng/ml in a volume of 100 μl/well of each the humanized anti-Cad-11 antibodies were incubated in the peptide coated wells and incubated at 22° C. for 1 hr. Antibody solution was removed from the wells and the plate washed twice with 200 μl/well of 0.05% Tween-PBS at 22° C. and blotted dry. The goat-anti mouse IgG (Pierce # 31432) was added to each well to plate at a 1:1000 dilution, 100 μl/well and incubate at 22° C. for 30 min. The secondary antibody solution was removed and the plate washed twice with 200 μl/well of 0.05% Tween-PBS at 22° C. and blotted dry. The reaction was developed by adding 100 μl/well tetramethylbenzidine (TMB) reagent IgG (Pierce # 34022, 1 step Turbo TMB-ELISA) to plate and developed at 22° C. for 5 min.
The greatest cross reactivity was seen against Cad-8. […] This assay was repeated with the Cad-11, Cad-8 and Cad-18 antigens with a lower antigen coat concentration of 50 ng/ml and a wider dilution series of the SDP051 antibody (FIG. 41B). […] An EC50 for Cad-18 could not be established due to the low level of binding observed.

[2] = target: T2, recombinant his-tagged human Cad-11 …; assay: SPR, rhCad-11 immobilized, SDP051 as analyte, 2 state reaction model (kd1)
Description: To determine the affinity of SDP051 for recombinant his-tagged human Cad-11, rhCad-11 (R&D Systems) was immobilized to the chip at a single concentration, high resolution kinetics were determined for SDP051, and a 2-state reaction binding model was successfully fitted to the kinetic data.
Kinetic data were obtained at a flow rate of 40 μL/min to minimize any potential mass transfer effects. An analyte concentration series ranging from 12.5 nM to 0.195 nM was prepared by serial dilution. Two repeats of the blank (no mAb) and the 3.125 nM (first and last cycle) concentration of the analyte were programmed into the kinetic runs in order to check the stability of both the surface and analyte over the kinetic cycles. The SDP051 was injected over the Fcs for 360 seconds, long enough to observe the curvature in association phase.
As rhCad-11 is homodimeric and therefore contained two identical binding epitopes, it is likely that individual mAb molecules become bound sequentially through a first binding site and then both binding sites.

[3] = target: T3, recombinant Cad-11 EC1 human IgG1 …; assay: competition ELISA on coated recombinant human Cad-11 EC1 fusion protein; competitor biotinylated SYN0012 at 0.1 µg/ml, streptavidin-HRP, OD450
Description: The binding of the purified humanized composite variant antibodies (SDP011 to SDP151) to a recombinant Cad-11 EC1 human IgG1 fusion protein was assessed in a competition binding ELISA. A dilution series from 5 μg/ml to 0.0022 μg/ml of the humanized or control (SYN0012/H1M1) antibodies was premixed with a constant concentration of biotinylated murine anti-Cad-11 antibody, SYN0012/H1M1 (0.1 μg/ml, final concentration), before incubating for 1 hour at room temperature on a Nunc Immuno MaxiSorp 96 well flat bottom microtitre plate (Fisher Cat. No. DIS-971-030J) pre-coated with 0.25 μg/ml recombinant human Cad-11 EC1 (R&D Systems Cat. No. 1790-CA-050) diluted in PBS. The binding of the biotinylated mAb was detected with streptavidin-HRP (Sigma Cat. No. 55512) and tetramethylbenzidine (TMB) substrate (Invitrogen Cat. No. 00-2023).

| fold greater binding to the Cad-11 antigen than to the related antigens from the other cadherins [1] | koff [2] | IC50 (read off the curve) [3] | Binder |
| --- | --- | --- | --- |
| > 100 fold | 0.0043 s⁻¹ | ~0.2 µg/mL | humanized anti-Cad-11 EC1 antibody SDP051 (Vκ1/VH5) (antibody, IgG4, V domains shown, humanized IgG4 (S241P), kappa) VH: EVQLVQSGAEVKKPGASVKVSCKASGYSFTGYFMNWVRQAPGQGLEWIGRINPYTGDTFYNQKFKGRVTITVDKSTSTAYMELSSLRSEDTAVYYCGRLGSRYWYFDVWGQGTTVTVSS VL: DVLMTQTPLSSPVTLGQPASISCRSSQSIIHSNGNTYLEWYLQKPGQSPQLLIYKVSNRFSGVPDRFTGSGSGTDFTLKISRVEAEDVGVYYCFQGSHVPWTFGQGTKLEIK |
|  |  | ~0.2 µg/mL | murine H1M1 monoclonal anti-Cad-11 EC1 antibody (hybridoma H1M1, ATCC PTA-9699) (antibody, V domains shown, Biotinylated when used as the labelled competitor in Example 14; the letters are unchanged., murine antibody raised against Peptide 4; also called SYN0012; SYN0012/H1M1) VH: EVQLQQSGPELVKPGASVKISCKASGYSFTGYFMNWVKQSHGKSLEWIGRINPYTGDTFYNQKFKGKATLTVDKSSSTAHMELLSLSSEDSAVYYCGRLGSRYWYFDVWGAGTTVTVSS VL: DVLMTQTPLSLPVSLGDQASISCRSSQSIIHSNGNTYLEWYLQKPGQSPKLLIYKVSNRFSGVPDRFTGSGSGTDFTLKISRVEAEDLGVYYCFQGSHVPWTFGGGTKLEIK |
